Data on three molecules can be found in paper PMC2926950 (Bioorganic & medicinal chemistry, 2009).

Assay [1] has as its target T1, hDMX_(1-200) (human, UniProt O15151 1-200).
T1 sequence (looked up): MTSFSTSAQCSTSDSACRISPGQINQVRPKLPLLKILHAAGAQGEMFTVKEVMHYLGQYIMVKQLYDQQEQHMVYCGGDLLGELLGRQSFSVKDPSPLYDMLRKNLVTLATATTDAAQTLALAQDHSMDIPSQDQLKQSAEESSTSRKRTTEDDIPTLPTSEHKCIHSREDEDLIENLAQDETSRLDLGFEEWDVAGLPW
Briefly: fluorescence polarisation. Background: In fluorescence polarisation assays a small probe gives low polarisation when free and higher when bound to something large.

Assay [2] has as its target T1, hDMX_(1-200). In words: fluorescence polarisation. This is another data set of the same source.

Ends that are not written are not given here.

Take MRPFMDYWEGLN (also: fluorescent label (flu), position not given here) [p53 12/1^flu]: in assay [1], binding was characterised by a dissociation constant (Kd) of 237 ± 21.5 nM. For MRPFMDYWEGLN [p53 12/1], in assay [2], the half-inhibitory concentration (IC50) stood at 3870 ± 389 nM. For SQETFSDLWKLLPENNV (peptide, UniProt P04637 15-31, looked up, also: fluorescent label (flu), position not given here) [p53AD15−31^flu], the affinity in assay [1], expressed as Kd, was 841 ± 28.8 nM.

What is called Kd is the free concentration of one partner at which half of the binding sites on the other are occupied at equilibrium, for simple one-to-one binding. The low end stands for higher affinity, the high end for lower affinity. In general, IC50 refers to the midpoint of a concentration-inhibition curve. Higher therefore signals weaker potency in that assay.
